The term Kd denotes the equilibrium constant for the complex coming apart. Low readings indicate higher affinity, high ones lower affinity. As usually defined, the IC50 is the midpoint of a concentration-inhibition curve. As a reminder, the stoichiometry N is the number of molecules, sites or subunits per partner or assembly.

Values joined by “and” are separate entries in the source; they are usually repeats but may differ in a detail not shown here. Identical values can stand only once.

Consider five molecules from publication PMC5562914, “Activation of an anti-bacterial toxin by the biosynthetic enzyme CysK: mechanism of binding, interaction specificity and competition with cysteine synthase” (Scientific Reports, 2017).

Data set [1] concerns the target CysK from Haemophilus influenzae, His6 tag removed with thrombin (Haemophilus influenzae) (UniProt P45040). The data set can be described thus: other fluorescence titration; PLP fluorescence emission at 500 nm; HiCysK (300 nM) or NlCysK (860 nM) titrated with CdiA-CT; read after 20 min; binding isotherm (Eq. 1).
Data set [2] deals with CysK from Neisseria lactamica ATCC 23970, His6-tagged (Neisseria lactamica ATCC 23970). The data set is described as above.
Data set [3] concerns the target T1, CdiA-CT toxin domain from uropathogenic Escherichia coli 536, Q0T963.
T1 chain: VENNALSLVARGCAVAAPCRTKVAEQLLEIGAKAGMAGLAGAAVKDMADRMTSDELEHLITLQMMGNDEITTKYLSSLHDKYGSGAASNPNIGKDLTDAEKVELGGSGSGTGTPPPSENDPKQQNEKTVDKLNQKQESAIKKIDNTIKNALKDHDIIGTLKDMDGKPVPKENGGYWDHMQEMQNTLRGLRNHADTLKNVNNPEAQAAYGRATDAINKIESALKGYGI
The data set can be described thus: stopped-flow fluorescence; as a5, CysK concentration varied, 37 C. To be noted: other: stopped-flow fluorescence.

Data set [4] addresses T1, CdiA-CT toxin domain from uropathogenic …. The data set can be described thus: stopped-flow fluorescence; as a5, CysK concentration varied, 5 C. The conditions noted are these: other: stopped-flow fluorescence.
For data set [5] the target is unchanged. The data set can be described thus: stopped-flow fluorescence; PLP fluorescence, excitation 412 nm; buffer A; pseudo-first order, 200 nM EcCysK or 270 nM CdiA-CT fixed and the partner varied; 20 C; slope of kobs against concentration. To be noted: other: stopped-flow fluorescence.
Data set [6] addresses T2, E. coli CysK (EcCysK), O-acetyl-L-Ser sulfhydrylase (E. coli, UniProt P0ABK5 1-323, pyridoxal 5'-phosphate (PLP) cofactor).
T2 construct: CysK of E. coli; the E. coli cysK gene was amplified and ligated to pCH10068 (pSH21::trxA-TEV-cysK) for the purification of untagged EcCysK; not shown: TrxA, N-terminal, cleaved
T2 sequence (looked up): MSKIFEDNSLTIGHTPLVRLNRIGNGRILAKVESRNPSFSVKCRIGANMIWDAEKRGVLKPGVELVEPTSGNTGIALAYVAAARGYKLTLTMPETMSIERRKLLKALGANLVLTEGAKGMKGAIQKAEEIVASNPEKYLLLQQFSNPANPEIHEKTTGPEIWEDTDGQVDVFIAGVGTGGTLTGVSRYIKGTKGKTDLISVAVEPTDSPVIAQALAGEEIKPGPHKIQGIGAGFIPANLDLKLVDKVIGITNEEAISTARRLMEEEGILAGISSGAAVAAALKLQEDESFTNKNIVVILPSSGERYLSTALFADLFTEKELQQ
The data set can be described thus: inhibition of enzyme activity (sulfhydrylase); 6 nM EcCysK titrated with CdiA-CT; buffer A with 2 mM O-acetyl-L-Ser, 0.6 mM Na2S, 60 nM BSA; Morrison equation gives an apparent IC50, converted to Ki (Eq. 4). To be noted: both partners purified.

For data set [7], the target named is T2, E. coli CysK (EcCysK), O-acetyl-L-Ser …. Briefly: other fluorescence titration; PLP fluorescence (excitation 412 nm, emission 500 nm); 1 uM EcCysK titrated with CdiA-CT to saturation (stoichiometric titration); 20 C. To be noted: both partners purified.
Data set [8] has the same target. The data set can be described thus: other fluorescence titration; PLP fluorescence emission at 500 nm; 80 nM EcCysK titrated with CdiA-CT; data read after 20 min; quadratic tight-binding equation (Eq. 2); 20 C. To be noted: both partners purified.
The target is the same in data set [9]. The data set can be described thus: inhibition of enzyme activity (sulfhydrylase); as a3 (6 nM EcCysK titrated with CdiA-CT) in the presence of 2.4 uM CdiI. The conditions noted are these: both partners purified.
Data set [10] concerns the molecule itself. Briefly: SEC; Ultrogel AcA44 column, 0.2 mL/min, buffer A. (In general: Size exclusion chromatography separates by hydrodynamic size, large species first.)

On to “CdiA-CT toxin domain from uropathogenic Escherichia coli 536 (from UniProt Q0T963 3016-3242) (domain or fragment)”, for which the Kd is 3300 nM in data set [1] and 6400 nM in data set [2].

B1: E. coli CysK (EcCysK), O-acetyl-L-Ser sulfhydrylase (protein)
chain: T2 sequence (looked up)
Turning to B1, the “second-order rate constant k3/Kd (slope of kobs against CysK concentration, 37 °C)” value in data set [3] was 0.099 ± 0.019 µM^−1·s^−1 (37 °C). Further, the “second-order rate constant k3/Kd (slope of kobs against CysK concentration, 5 °C)” value in data set [4] was 0.005 ± 0.0003 µM^−1·s^−1 (5 °C). In addition, in data set [5], the “second-order rate constant k3/Kd (slope of kobs against protein concentration)” value is 19000 ± 7000 M⁻¹ s⁻¹ and 17000 ± 7000 M⁻¹ s⁻¹.

B2: CdiA-CT toxin domain from uropathogenic Escherichia coli 536 (domain or fragment)
chain: T1 chain
notes: C-terminal toxin domain (CdiA-CT) of CdiA, uropathogenic E. coli 536
Consider B2, for which, in [6], the IC50 turned out to be 15.4 ± 0.6 nM and the Ki worked out at 11 ± 0.4 nM. Moreover, the “stoichiometry N” value in data set [7] is 1.1 CdiA-CT:EcCysK. In data set [8], this molecule showed a Kd of 10 ± 11 nM.

B3: CdiA-CT in the presence of excess CdiI immunity protein (CdiA-CT:CdiI) (complex)
chain 1: T1 chain
chain 2: MITLRKLIGNINMTKEPEQQSPLELWFERIIDVPLEKLTVEDLCRAIRQNLCIDQLMPRVLEVLTKEPLAGEYYDGELIAALSTIKGEDLKDQKSTFTQIRQLINQLEPSDINDDLRKDILKINQIIV
On to B3, for which the Ki in data set [9] was found to be 6.4 ± 0.5 nM.

B4: E. coli CysE (EcCysE), serine O-acetyltransferase (enzyme, UniProt P0A9D4 1-273, looked up)
chain: MSCEELEIVWNNIKAEARTLADCEPMLASFYHATLLKHENLGSALSYMLANKLSSPIMPAIAIREVVEEAYAADPEMIASAACDIQAVRTRDPAVDKYSTPLLYLKGFHALQAYRIGHWLWNQGRRALAIFLQNQVSVTFQVDIHPAAKIGRGIMLDHATGIVVGETAVIENDVSILQSVTLGGTGKSGGDRHPKIREGVMIGAGAKILGNIEVGRGAKIGAGSVVLQPVPPHTTAAGVPARIVGKPDSDKPSMDMDQHFNGINHTFEYGDGI
notes: CysE of E. coli; cysE amplified with primers CH3642/CDI235 (the fragment that also gives 'native EcCysE'); not shown: His6-thioredoxin (His6-TrxA), N-terminal, cleaved
B4: the “stoichiometry N” value in data set [10] was 6.
